According to patent US20220033515A1 (Genentech, published 2022):
Read-outs that look alike come from different tables or passages of the source.

How the values were obtained:
[1] = molecular target: T1, human vascular endothelial growth factor (hVEGF) (human, UniProt P15692-4 27-191); test: competitive phage ELISA
T1 construct: also called hVEGF-A; human vascular endothelial growth factor A

[2] = molecular target: T2, HER2 extracellular domain (Her2-ECD) (human, UniProt P04626 23-652); test: competitive phage ELISA
T2 construct: extracellular domain; also called hHER2 extracellular domain (ECD)

[3] = molecular target: T1, human vascular endothelial growth …; test: equilibrium KD; method and format (Fab or IgG) not given
[4] = molecular target: T2, HER2 extracellular domain (Her2-ECD); test: single-spot competitive phage ELISA
[5] = molecular target: T2, HER2 extracellular domain (Her2-ECD); test: competitive phage ELISA; remark: listed apart in the source
[6] = molecular target: T2, HER2 extracellular domain (Her2-ECD); test: equilibrium KD; method and format (Fab or IgG) not given; HER2, second number of the cell
[7] = molecular target: T3, hVEGF109 (human, UniProt P15692 214-315); test: Biacore SPR
T3 construct: range 8-109; also called VEGF (8-109)
T3 sequence (looked up): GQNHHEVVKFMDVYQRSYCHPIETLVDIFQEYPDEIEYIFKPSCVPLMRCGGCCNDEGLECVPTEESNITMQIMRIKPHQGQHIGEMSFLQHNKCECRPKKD

[8] = molecular target: T2, HER2 extracellular domain (Her2-ECD); test: single-spot phage ELISA
[9] = molecular target: T4, hVEGF-D (human, UniProt O43915 93-201); test: ELISA on immobilised protein
T4 sequence (looked up): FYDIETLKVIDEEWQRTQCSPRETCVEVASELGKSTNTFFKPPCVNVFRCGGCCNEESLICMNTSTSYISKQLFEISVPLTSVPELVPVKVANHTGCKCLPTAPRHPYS

[10] = molecular target: T2, HER2 extracellular domain (Her2-ECD); test: ELISA on immobilised protein
[11] = molecular target: T5, human death receptor 5 (hDR5) (human, UniProt O14763 56-210); test: ELISA on immobilised protein
T5 construct: also called DR5 long; hDR5-1f

[12] = molecular target: T6, bovine serum albumin (BSA) (bovine, UniProt P02769 25-607); test: ELISA on immobilised protein
[13] = molecular target: T7, epidermal growth factor receptor extracellular domain (hEGFR) (human, UniProt P00533 25-645); test: ELISA on immobilised protein
T7 construct: extracellular domain

[14] = molecular target: T8, hVEGF-C (human, UniProt P49767 103-227); test: ELISA on immobilised protein
T8 sequence (looked up): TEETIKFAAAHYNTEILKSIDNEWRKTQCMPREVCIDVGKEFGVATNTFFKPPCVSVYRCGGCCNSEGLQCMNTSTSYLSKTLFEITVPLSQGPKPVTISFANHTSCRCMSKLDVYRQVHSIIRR

[15] = molecular target: T2, HER2 extracellular domain (Her2-ECD); test: Biacore SPR
[16] = molecular target: T4, hVEGF-D; test: ELISA on immobilised target
[17] = molecular target: T5, human death receptor 5 (hDR5); test: ELISA on immobilised target
[18] = molecular target: T6, bovine serum albumin (BSA); test: ELISA on immobilised target
[19] = molecular target: T7, epidermal growth factor receptor …; test: ELISA on immobilised target
[20] = molecular target: T8, hVEGF-C; test: ELISA on immobilised target
[21] = molecular target: T9, murine VEGF (mVEGF) (murine, UniProt Q00731-2 27-190); test: ELISA on immobilised target
T9 sequence (looked up): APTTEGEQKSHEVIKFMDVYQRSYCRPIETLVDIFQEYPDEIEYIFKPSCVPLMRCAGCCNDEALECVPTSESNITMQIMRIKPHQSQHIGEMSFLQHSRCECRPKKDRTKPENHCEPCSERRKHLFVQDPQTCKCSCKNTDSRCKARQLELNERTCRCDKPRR

B1: 3-2 (scFv, V domains shown)
VH: not shown
VL: DIQMTQSPSSLSASVGDRVTITCRASQDIRMGSVAWYQQKPGKAPKLLIYWGSVLYSGVPSRFSGSGSGTDFTLTISSLQPEDFATYYCQQHYTTPPTFGQGTKVEIK
IC50 [1]: > 1000 nM | IC50 [2]: 1.56 nM

B2: bH3 (antibody, V domains shown)
VH: not shown
VL: DIQMTQSPSSLSASVGDRVTITCRASQDIGLGSVAWYQQKPGKAPKLLIYWASYLYSGVPSRFSGSGSGTDFTLTISSLQPEDFATYYCQQHYTTPPTFGQGTKVEIKR
Kd [3]: 19000 nM | OD450 without competitor [4]: 1.96 | IC50 [5]: 2.6 nM | Kd [6]: 8 nM

B3: 3-1 (antibody, V domains shown)
VH: not shown
VL: DIQMTQSPSSLSASVGDRVTITCRASQNVWDWVAWYQQKPGKAPKLLIYPASSLYSGVPSRFSGSGSGTDFTLTISSLQPEDFATYYCQQGWYIAPPTFGQGTKVEIKR
Kd [7]: 15 nM | binding result [8]: no binding | Kd [3]: 15 nM

B4: 3-1 hIgG (antibody, V domains shown)
VH: not shown
VL: B3 VL
notes: not shown: rest of the human IgG heavy chain constant region
binding result [9]: no binding (tested: 100 or 500 nM (text)) | binding result [10]: no binding (tested: 100 or 500 nM (text)) | binding result [11]: no binding (tested: 100 or 500 nM (text)) | binding result [12]: no binding (tested: 100 or 500 nM (text)) | binding result [13]: no binding (tested: 100 or 500 nM (text)) | binding result [14]: no binding (tested: 100 or 500 nM (text)) | Kd [7]: 12 nM

B5: bH1 hIgG (antibody, V domains shown)
VH: not shown
VL: DIQMTQSPSSLSASVGDRVTITCRASQDIPRSISGYVAWYQQKPGKAPKLLIYWGSYLYSGVPSRFSGSGSGTDFTLTISSLQPEDFATYYCQQHYTTPPTFGQGTKVEIKR
notes: also called bH1 IgG; not shown: rest of the human IgG heavy chain constant region
Kd [15]: 9.8 nM | binding result [16]: no binding (tested: 100 nM (text)) | binding result [17]: no binding (tested: 100 nM (text)) | binding result [18]: no binding (tested: 100 nM (text)) | binding result [19]: no binding (tested: 100 nM (text)) | binding result [20]: no binding (tested: 100 nM (text))

B6: H3 hIgG (antibody, V domains shown)
VH: not shown
VL: B2 VL
notes: also called bH3 IgG; not shown: rest of the human IgG heavy chain constant region
binding result [11]: no binding (tested: 100 or 500 nM (text)) | binding result [12]: no binding (tested: 100 or 500 nM (text)) | Kd [15]: 20 nM | binding result [16]: no binding (tested: 100 nM (text)) | binding result [19]: no binding (tested: 100 nM (text)) | binding result [21]: no binding (tested: 100 nM (text)) | binding result [20]: no binding (tested: 100 nM (text))
